Here are results for 125 sequences from the supplement of paper PMC9112550, “Optimization of the antimicrobial peptide Bac7 by deep mutational scanning” (BMC Biology, 2022).
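Further: peptides expressed intracellularly from a pBAD plasmid library in pooled LB shake-flask culture, induced with 0.3% L-arabinose, DNA abundance read by NGS, three biological replicates, DESeq2 with apeglm shrinkage.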

The subject of this data set is Escherichia coli TOP10. Kind of data set: shrunken log2 fold change of peptide-encoding DNA abundance (4.5 h post-induction vs induction); higher = less antimicrobial activity (less host growth inhibition). The following applies: time post-induction: 4.5 h; library: site-saturation at positions 5, 18, 19, 20.
RRIRARPPRLPRPRPRPKYRPRP: the “shrunken log2 fold change” value was -0.118.

As to RRIRLRPPRLPRPRPRPLPRPRP, the “shrunken log2 fold change” value stood at 0.475.

For the sequence RRIRHRPPRLPRPRPRPSNQPRP, the “shrunken log2 fold change” value was -0.616.

For the sequence RRIRMRPPRLPRPRPRPEGPPRP, the “shrunken log2 fold change” value came out at 0.578.

In the case of RRIRVRPPRLPRPRPRPNSDPRP, the “shrunken log2 fold change” value was -0.429.

RRIRKRPPRLPRPRPRPQIWPRP: the “shrunken log2 fold change” value was found to be 0.138.

For RRIRARPPRLPRPRPRPKRDPRP, the “shrunken log2 fold change” value stood at 0.135.

As to RRIRDRPPRLPRPRPRPTILPRP, the “shrunken log2 fold change” value is 0.242.

Take RRIRGRPPRLPRPRPRPEAIPRP: the “shrunken log2 fold change” value was determined as 1.82.

Regarding RRIRHRPPRLPRPRPRPQQYPRP, the “shrunken log2 fold change” value is -0.706.

Regarding RRIRFRPPRLPRPRPRPISIPRP, the “shrunken log2 fold change” value is -0.697.

RRIRVRPPRLPRPRPRPMERPRP: the “shrunken log2 fold change” value came to 0.0131.

On to RRIRRRPPRLPRPRPRPLEIPRP, for which the “shrunken log2 fold change” value was determined as 0.0856.

RRIRARPPRLPRPRPRPTPKPRP: the “shrunken log2 fold change” value is 0.956.

For the sequence RRIRHRPPRLPRPRPRPCPFPRP, the “shrunken log2 fold change” value is -0.654.

As to RRIRARPPRLPRPRPRPQHQPRP, the “shrunken log2 fold change” value amounted to 0.698.

As to RRIRWRPPRLPRPRPRPDFSPRP, the “shrunken log2 fold change” value is -0.0269.

As to RRIRQRPPRLPRPRPRPFQAPRP, the “shrunken log2 fold change” value was -0.207.

In the case of RRIRMRPPRLPRPRPRPLIFPRP, the “shrunken log2 fold change” value was -0.139.

As for RRIRCRPPRLPRPRPRPRLWPRP, the “shrunken log2 fold change” value was determined as 1.01.

With RRIRSRPPRLPRPRPRPEVAPRP, the “shrunken log2 fold change” value turned out to be 0.102.

As for RRIRLRPPRLPRPRPRPGDMPRP, the “shrunken log2 fold change” value was -0.129.

RRIRQRPPRLPRPRPRPCNVPRP: the “shrunken log2 fold change” value was -0.0261.

As to RRIRGRPPRLPRPRPRPQFCPRP, the “shrunken log2 fold change” value came to 0.719.

Consider RRIRSRPPRLPRPRPRPRGRPRP, for which the “shrunken log2 fold change” value worked out at 0.375.

RRIRERPPRLPRPRPRPEWGPRP: the “shrunken log2 fold change” value amounted to 0.23.

As for RRIRFRPPRLPRPRPRPHSTPRP, the “shrunken log2 fold change” value is -0.0436.

Consider RRIRDRPPRLPRPRPRPIRIPRP, for which the “shrunken log2 fold change” value was -0.0935.

In the case of RRIRIRPPRLPRPRPRPSEKPRP, the “shrunken log2 fold change” value was -0.195.

RRIRWRPPRLPRPRPRPLWKPRP: the “shrunken log2 fold change” value is -0.128.

For the sequence RRIRFRPPRLPRPRPRPQQTPRP, the “shrunken log2 fold change” value was -0.0409.

Take RRIRQRPPRLPRPRPRPTPNPRP: the “shrunken log2 fold change” value came out at 0.333.

On to RRIRERPPRLPRPRPRPTWAPRP, for which the “shrunken log2 fold change” value worked out at 0.115.

For the sequence RRIRKRPPRLPRPRPRPPTLPRP, the “shrunken log2 fold change” value was found to be 1.53.

Consider RRIRYRPPRLPRPRPRPYYQPRP, for which the “shrunken log2 fold change” value is -0.462.

Take RRIRCRPPRLPRPRPRPENTPRP: the “shrunken log2 fold change” value was -0.297.

On to RRIRHRPPRLPRPRPRPWCPPRP, for which the “shrunken log2 fold change” value is -0.402.

RRIRCRPPRLPRPRPRPTWVPRP: the “shrunken log2 fold change” value is 0.342.

As to RRIRIRPPRLPRPRPRPVGIPRP, the “shrunken log2 fold change” value was found to be 0.16.

Consider RRIRGRPPRLPRPRPRPYSMPRP, for which the “shrunken log2 fold change” value was found to be 0.00971.

Turning to RRIRVRPPRLPRPRPRPHRYPRP, the “shrunken log2 fold change” value was -0.348.

RRIRYRPPRLPRPRPRPHYRPRP: the “shrunken log2 fold change” value was -0.433.

For RRIRMRPPRLPRPRPRPQGIPRP, the “shrunken log2 fold change” value is -0.154.

RRIRYRPPRLPRPRPRPEWRPRP: the “shrunken log2 fold change” value was 0.172.

As to RRIRLRPPRLPRPRPRPVHWPRP, the “shrunken log2 fold change” value came out at 0.4.

As to RRIRGRPPRLPRPRPRPAEQPRP, the “shrunken log2 fold change” value worked out at 1.25.

On to RRIRSRPPRLPRPRPRPQMLPRP, for which the “shrunken log2 fold change” value was -0.195.

For RRIRGRPPRLPRPRPRPAQTPRP, the “shrunken log2 fold change” value came out at 0.221.

RRIRMRPPRLPRPRPRPCCNPRP: the “shrunken log2 fold change” value was -0.00151.

RRIRARPPRLPRPRPRPAWSPRP: the “shrunken log2 fold change” value is 0.329.

RRIRHRPPRLPRPRPRPMVLPRP: the “shrunken log2 fold change” value is -0.0459.

For RRIRFRPPRLPRPRPRPEIQPRP, the “shrunken log2 fold change” value worked out at 0.0158.

RRIRMRPPRLPRPRPRPQWAPRP: the “shrunken log2 fold change” value was -0.0175.

In the case of RRIRERPPRLPRPRPRPQFIPRP, the “shrunken log2 fold change” value was -0.014.

In the case of RRIRHRPPRLPRPRPRPIRSPRP, the “shrunken log2 fold change” value was -0.0062.

As to RRIRHRPPRLPRPRPRPACGPRP, the “shrunken log2 fold change” value came to 0.216.

For the sequence RRIRHRPPRLPRPRPRPWWYPRP, the “shrunken log2 fold change” value was -0.0664.

RRIRKRPPRLPRPRPRPEDKPRP: the “shrunken log2 fold change” value was determined as 0.0421.

For the sequence RRIRLRPPRLPRPRPRPNVKPRP, the “shrunken log2 fold change” value is -0.107.

Take RRIRTRPPRLPRPRPRPIKEPRP: the “shrunken log2 fold change” value was -0.253.

RRIRKRPPRLPRPRPRPWNVPRP: the “shrunken log2 fold change” value stood at 0.0194.

In the case of RRIRQRPPRLPRPRPRPQLIPRP, the “shrunken log2 fold change” value was -0.237.

For RRIRPRPPRLPRPRPRPPYEPRP, the “shrunken log2 fold change” value is -0.145.

Consider RRIRKRPPRLPRPRPRPVNCPRP, for which the “shrunken log2 fold change” value is -0.112.

As to RRIRCRPPRLPRPRPRPLMCPRP, the “shrunken log2 fold change” value is -0.306.

Regarding RRIRTRPPRLPRPRPRPCWEPRP, the “shrunken log2 fold change” value turned out to be 0.203.

Consider RRIRRRPPRLPRPRPRPIGKPRP, for which the “shrunken log2 fold change” value is -0.0155.

On to RRIRVRPPRLPRPRPRPKIIPRP, for which the “shrunken log2 fold change” value is -0.645.

For the sequence RRIRHRPPRLPRPRPRPNSMPRP, the “shrunken log2 fold change” value was -0.401.

Take RRIRWRPPRLPRPRPRPECPPRP: the “shrunken log2 fold change” value was found to be 0.341.

As to RRIRQRPPRLPRPRPRPVPDPRP, the “shrunken log2 fold change” value was found to be 0.106.

RRIRIRPPRLPRPRPRPHFHPRP: the “shrunken log2 fold change” value was -0.424.

Take RRIRKRPPRLPRPRPRPRYCPRP: the “shrunken log2 fold change” value was -0.142.

For the sequence RRIRWRPPRLPRPRPRPLTAPRP, the “shrunken log2 fold change” value worked out at 0.436.

RRIRMRPPRLPRPRPRPNDAPRP: the “shrunken log2 fold change” value is 0.317.

For the sequence RRIRFRPPRLPRPRPRPVVAPRP, the “shrunken log2 fold change” value was determined as 0.0597.

RRIRARPPRLPRPRPRPKWCPRP: the “shrunken log2 fold change” value is 0.321.

As for RRIRLRPPRLPRPRPRPAQPPRP, the “shrunken log2 fold change” value is 0.0855.

Turning to RRIRRRPPRLPRPRPRPREYPRP, the “shrunken log2 fold change” value came to 0.2.

As for RRIRGRPPRLPRPRPRPADRPRP, the “shrunken log2 fold change” value was found to be 1.07.

In the case of RRIRIRPPRLPRPRPRPLIDPRP, the “shrunken log2 fold change” value was -0.42.

Consider RRIRWRPPRLPRPRPRPQDQPRP, for which the “shrunken log2 fold change” value came out at 0.0586.

Consider RRIRWRPPRLPRPRPRPFEDPRP, for which the “shrunken log2 fold change” value was determined as 0.104.

As to RRIRERPPRLPRPRPRPKFMPRP, the “shrunken log2 fold change” value was -0.293.

Take RRIRIRPPRLPRPRPRPIRQPRP: the “shrunken log2 fold change” value was found to be 0.143.

As for RRIRRRPPRLPRPRPRPIDLPRP, the “shrunken log2 fold change” value was -0.115.

Consider RRIRCRPPRLPRPRPRPSSMPRP, for which the “shrunken log2 fold change” value is -0.859.

For RRIRNRPPRLPRPRPRPQKDPRP, the “shrunken log2 fold change” value is -0.564.

In the case of RRIRLRPPRLPRPRPRPWTKPRP, the “shrunken log2 fold change” value was -0.139.

Regarding RRIRDRPPRLPRPRPRPFRVPRP, the “shrunken log2 fold change” value was -0.101.

RRIRRRPPRLPRPRPRPVRRPRP: the “shrunken log2 fold change” value is 0.619.

On to RRIRCRPPRLPRPRPRPCSQPRP, for which the “shrunken log2 fold change” value is -0.256.

For the sequence RRIRHRPPRLPRPRPRPAKYPRP, the “shrunken log2 fold change” value was 0.136.

Consider RRIRTRPPRLPRPRPRPHHCPRP, for which the “shrunken log2 fold change” value is -0.12.

As for RRIRKRPPRLPRPRPRPTPSPRP, the “shrunken log2 fold change” value amounted to 0.921.

Regarding RRIRYRPPRLPRPRPRPSPLPRP, the “shrunken log2 fold change” value was -0.55.

On to RRIRHRPPRLPRPRPRPMDFPRP, for which the “shrunken log2 fold change” value came to 3.65.

As for RRIRFRPPRLPRPRPRPLEEPRP, the “shrunken log2 fold change” value was -0.0138.

Turning to RRIRSRPPRLPRPRPRPQKYPRP, the “shrunken log2 fold change” value was -0.428.

In the case of RRIRPRPPRLPRPRPRPWYKPRP, the “shrunken log2 fold change” value is 0.215.

For RRIRNRPPRLPRPRPRPVEKPRP, the “shrunken log2 fold change” value turned out to be 0.143.

With RRIRSRPPRLPRPRPRPSPDPRP, the “shrunken log2 fold change” value was -0.218.

Take RRIRHRPPRLPRPRPRPPDRPRP: the “shrunken log2 fold change” value was determined as 0.385.

In the case of RRIRLRPPRLPRPRPRPFICPRP, the “shrunken log2 fold change” value is -0.426.

RRIRDRPPRLPRPRPRPDDDPRP: the “shrunken log2 fold change” value was -0.00186.

Regarding RRIRVRPPRLPRPRPRPQLPPRP, the “shrunken log2 fold change” value is -0.0715.

RRIRERPPRLPRPRPRPYGTPRP: the “shrunken log2 fold change” value was -0.0949.

As to RRIRLRPPRLPRPRPRPDRIPRP, the “shrunken log2 fold change” value was -0.123.

On to RRIRSRPPRLPRPRPRPMAIPRP, for which the “shrunken log2 fold change” value is 4e-05.

On to RRIRHRPPRLPRPRPRPTHHPRP, for which the “shrunken log2 fold change” value is -0.132.

With RRIRERPPRLPRPRPRPTGLPRP, the “shrunken log2 fold change” value amounted to 0.235.

Consider RRIRARPPRLPRPRPRPWAAPRP, for which the “shrunken log2 fold change” value was 0.239.

With RRIRIRPPRLPRPRPRPISEPRP, the “shrunken log2 fold change” value was -0.492.

For RRIRCRPPRLPRPRPRPVIPPRP, the “shrunken log2 fold change” value was -0.392.

Regarding RRIRFRPPRLPRPRPRPKSIPRP, the “shrunken log2 fold change” value is -0.0406.

For the sequence RRIRMRPPRLPRPRPRPKRSPRP, the “shrunken log2 fold change” value turned out to be 2.25.

For the sequence RRIRWRPPRLPRPRPRPLVRPRP, the “shrunken log2 fold change” value stood at 0.151.

For RRIRCRPPRLPRPRPRPGGLPRP, the “shrunken log2 fold change” value is 0.17.

In the case of RRIRHRPPRLPRPRPRPNWCPRP, the “shrunken log2 fold change” value was -0.00989.

On to RRIRHRPPRLPRPRPRPVLYPRP, for which the “shrunken log2 fold change” value is -0.317.

In the case of RRIRLRPPRLPRPRPRPGDLPRP, the “shrunken log2 fold change” value was determined as 0.00844.

Consider RRIRLRPPRLPRPRPRPIIEPRP, for which the “shrunken log2 fold change” value is -0.171.

In the case of RRIRSRPPRLPRPRPRPTCFPRP, the “shrunken log2 fold change” value came to 0.284.

With RRIRLRPPRLPRPRPRPVPHPRP, the “shrunken log2 fold change” value is -0.128.

Regarding RRIRRRPPRLPRPRPRPSHDPRP, the “shrunken log2 fold change” value is -0.00919.
